According to PMC7060837:
Residue numbers refer to the chain shown, from its start. Numbers in names are those of the source. Where two headings read alike, the source gives them in different places. Values belong to the molecule of their own block, whether it stands above or below them.

Tests used:
[1] = target: GMPCPP-stabilized microtubules of porcine brain tubulin (porcine) (UniProt P02550)
[2] = target: T1, katanin MEI-1/MEI-2 (wild type) (C. elegans) (UniProt P34808)
T1 sequence 1: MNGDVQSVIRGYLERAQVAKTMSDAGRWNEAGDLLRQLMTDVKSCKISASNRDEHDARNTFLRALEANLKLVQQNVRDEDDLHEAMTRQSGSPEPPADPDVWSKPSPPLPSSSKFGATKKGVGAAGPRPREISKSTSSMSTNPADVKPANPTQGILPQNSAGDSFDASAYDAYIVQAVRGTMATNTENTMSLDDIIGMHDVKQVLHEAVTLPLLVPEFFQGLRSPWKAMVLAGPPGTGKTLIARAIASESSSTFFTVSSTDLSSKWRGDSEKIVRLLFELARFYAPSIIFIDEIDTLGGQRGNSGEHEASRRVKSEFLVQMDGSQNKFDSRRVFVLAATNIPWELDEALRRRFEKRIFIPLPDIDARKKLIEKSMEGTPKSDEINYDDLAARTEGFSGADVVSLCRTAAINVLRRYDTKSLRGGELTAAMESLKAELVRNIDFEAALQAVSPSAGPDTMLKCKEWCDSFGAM
T1 sequence 2: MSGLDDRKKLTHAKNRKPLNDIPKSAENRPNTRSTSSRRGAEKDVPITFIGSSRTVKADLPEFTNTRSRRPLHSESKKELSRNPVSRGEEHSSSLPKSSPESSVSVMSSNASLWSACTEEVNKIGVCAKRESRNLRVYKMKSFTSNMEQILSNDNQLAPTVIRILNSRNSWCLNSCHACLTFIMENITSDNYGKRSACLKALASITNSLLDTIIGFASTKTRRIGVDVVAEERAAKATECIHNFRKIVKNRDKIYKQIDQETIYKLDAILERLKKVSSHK

[3] = target: T1, katanin MEI-1/MEI-2 (wild type) (C. elegans); remark: listed apart in the source
[4] = target: katanin MEI-1/MEI-2 mutant Glu308 to alanine (C. elegans) (UniProt P34808)
[5] = target: GMPCPP-stabilized microtubules of porcine brain tubulin (porcine) (UniProt P02550); remark: listed apart in the source
[6] = target: taxol-stabilized brain microtubules (UniProt P02550)
[7] = target: taxol-stabilized brain microtubules (UniProt P02550); remark: listed apart in the source
[8] = target: katanin MEI-1/MEI-2 mutant W266A (C. elegans) (UniProt P34808)
[9] = target: katanin MEI-1/MEI-2 mutant R267A (C. elegans) (UniProt P34808)
[10] = target: katanin MEI-1/MEI-2 mutant K265A (C. elegans) (UniProt P34808)

microtubule severing activity of spastin at 20 nM, reduction against wild type [1]: 70%
Molecule: Drosophila melanogaster spastin with Arg159Arg160Arg166Arg172Arg174 mutated to alanine (enzyme)

microtubule severing activity of spastin at 20 nM, reduction against wild type [1]: 50%
Molecule: Drosophila melanogaster spastin mutated in the N-terminal positively-charged cluster Arg110Lys111Lys117Arg118 (enzyme)

stimulation of katanin ATPase by the tail, weaker than βI and βIVb by [2]: 30%
Molecule: βV-tail (peptide)

maximal stimulation of katanin ATPase by the tail peptide (2 to 600 μM) [3]: 3.5 fold
Molecule: DATAEEEGEFEEEAEEEVA [βIVb-tubulin tail peptide]

basal ATPase, reduction against wild type [4]: 87%
B1: katanin MEI-1/MEI-2 mutant Glu308 to alanine (complex)
chain 1: T1 sequence 1 with E308A
chain 2: T1 sequence 2

microtubule severing activity, reduction against wild type [5]: 32%
B2: katanin MEI-1/MEI-2 Arg128Arg130Lys134Ala triple mutant (complex)
chain 1: T1 sequence 1 with R128A, R130A, K134A
chain 2: T1 sequence 2
tubulin extraction (nanodamage) activity, reduction against wild type [5]: 51%

microtubule stimulated ATPase, reduction against wild type [6]: 50%
B3: katanin MEI-1/MEI-2 mutant K119K120R128R130K134AAAAA (complex)
chain 1: T1 sequence 1 with K119A, K120A, R128A, R130A, K134A
chain 2: T1 sequence 2

microtubule stimulated ATPase, reduced (so in the source) [7]: 64% | basal ATPase, reduced (so in the source) [8]: 59%
B4: katanin MEI-1/MEI-2 mutant W266A (complex)
chain 1: T1 sequence 1 with W266A
chain 2: T1 sequence 2

basal ATPase, reduction against wild type [9]: 51% | microtubule stimulated ATPase, reduction against wild type [7]: 60%
B5: katanin MEI-1/MEI-2 mutant R267A (complex)
chain 1: T1 sequence 1 with R267A
chain 2: T1 sequence 2

basal ATPase, reduced (so in the source) [10]: 42% | microtubule stimulated ATPase, reduced (so in the source) [7]: 58%
B6: katanin MEI-1/MEI-2 mutant K265A (complex)
chain 1: T1 sequence 1 with K265A
chain 2: T1 sequence 2

maximal stimulation of katanin ATPase by the tail peptide (2 to 600 μM) [3]: 3.5 fold
Molecule: DATAEEEEDFGEEAEEEA [βI-tubulin tail peptide]

maximal stimulation of katanin ATPase by the tail peptide (2 to 600 μM) [3]: 2.2 fold
Molecule: VDSVEGEGEEEGEEY [α-tubulin tail peptide]
